Results reported in patent US20050130920A1 (published 2005).

Molecular target: T1, HLA-A2.1 on T2 cells (empty or unstable surface MHC class I, with added beta-2 microglobulin) (human)
T1 construct: it is treated here as the same molecule; also called HLA-A*0201
Assay: T2 cell HLA-A2.1 stabilisation, W6/32 staining, flow cytometry
Protocol: T2 cells, which express empty or unstable MHC molecules on their surfacer were washed twice and suspended at 5×10⁶ cells/ml in serum-free complete Iscove's modified Dulbecco's medium (IMDM). B2 microglobulin (Sigma, St. Louis, Mo.) was added at 5 μg/ml and the cells distributed to a 96-well U-bottom plate at 5×10⁵ cells/well. Peptides were added at 100, 10, 1 and 0.1 μg/ml. The plate was rocked gently for 2 minutes and then incubated for 4 hours in a 5% CO₂ incubator at 37° C. After the unbound peptide was removed by washing twice with IMDM, a saturating amount of monoclonal antibody W6/32 (Sigma) was added. After incubation for 30 minutes at 4° C., cells were washed with PBS supplemented with 1% heat-inactivated FCS, 0.1% (w:v) sodium azide, pH 7.4-7.6 (staining buffer), and incubated with fluorescein isothiocyanate (FITC)-conjugated goat F(ab′) antimouse-IgG (Sigma) for 30 min at 4° C. and washed four times as before. The cells were resuspended in staining buffer and fixed by adding a quarter volume of 2% paraformaldehyde.

- binding result: binds
B1: tyrosinase 207-216, FLPWHRLFLL (candidate tyrosinase housekeeping epitope) (peptide)
peptide: FLPWHRLFLL
notes: Synthetic 10-mer added to T2 cells at 100, 10, 1 and 0.1 ug/ml
